These results are taken from doi:10.1101/2020.11.27.401307.

Data set [1] has as its target T1, LARP6C La-module (Arabidopsis thaliana, UniProt Q9LHL3 137-332).
T1 sequence: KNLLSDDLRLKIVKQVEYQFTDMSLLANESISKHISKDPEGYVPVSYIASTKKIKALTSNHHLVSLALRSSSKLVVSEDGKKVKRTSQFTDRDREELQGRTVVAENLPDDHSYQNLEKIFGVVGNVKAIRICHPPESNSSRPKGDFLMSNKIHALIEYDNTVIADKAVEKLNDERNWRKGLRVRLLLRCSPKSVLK
Kind of data set: ITC. A general note: In ITC the heat of successive injections is recorded.

Data set [2] deals with T1, LARP6C La-module. The experiment in a line: EMSA.
In data set [3] the target is T1, LARP6C La-module. The experiment in a line: EMSA. The source holds these as a separate data set. (In general: Mobility shift assays separate free from complexed probe on a gel.)
The target in data set [4] is T1, LARP6C La-module. The experiment in a line: EMSA. This is another data set of the same source.

B1: A1 (ssRNA)
RNA: AAAAAAGAAGAAAAA
Turning to B1, in the data set with LARP6C La-module [1], the binding result is “no binding”.

B2: A2 (ssRNA)
RNA: GAGAGAGGAGAAGAA
Take B2: the binding result with LARP6C La-module [1] is reported as “no binding”.

B3: oligo(U20) (ssRNA)
RNA: UUUUUUUUUUUUUUUUUUUU
Turning to B3, the binding result in the data set with LARP6C La-module [2] is given as “binds”.

B4: B1 (ssRNA)
RNA: CUUCUUUCUUUCUUUUUUGUU
As a reminder, the Kd is the equilibrium constant for the complex coming apart. Low readings indicate higher affinity, high ones lower affinity. For the molecule B4, the Kd with LARP6C La-module [3] turned out to be 3.5 ± 0.3 µM; in the data set with LARP6C La-module [1], 2.8 µM; with LARP6C La-module [4], 0.8 ± 0.1 µM.

B5: B3 (ssRNA)
RNA: CCUCUCCCCCCCUCCCCCCUC
As to B5, the binding result with LARP6C La-module [1] is on record as “no binding”.

B6: B2 (ssRNA)
RNA: UCUCUCUGUUUCUUAUUCAUC
Consider B6, for which the results for the Kd with LARP6C La-module [3], with LARP6C La-module [1] and with LARP6C La-module [4] were 5.6 ± 0.2 µM, 3.7 µM and 1.9 ± 0.3 µM, respectively.
